Measurements published in US5405946A, “Recombinant protein S variants deficient in C4BP binding activity, compositions and therapeutic methods” (The Scripps Research Institute, priority 1992, dated 1995).

Key:
[1] = target: T1, human C4b-binding protein (C4BP) (Homo sapiens, UniProt P20851); test: ELISA of complex formation between recombinant PS variant proteins and C4BP; conditions: first disulfide loop variants, 0-150 ng/ml, C4BP 1 ug/ml, 18 hours room temperature, calcium
T1 sequence (P20851 18-252): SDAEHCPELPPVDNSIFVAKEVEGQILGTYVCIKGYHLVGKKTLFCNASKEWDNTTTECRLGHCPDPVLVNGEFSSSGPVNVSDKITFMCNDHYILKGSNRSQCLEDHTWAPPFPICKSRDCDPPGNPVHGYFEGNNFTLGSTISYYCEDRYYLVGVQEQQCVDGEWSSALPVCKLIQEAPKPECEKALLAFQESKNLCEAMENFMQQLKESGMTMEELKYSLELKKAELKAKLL
T1 sequence (P04003 49-597 partner): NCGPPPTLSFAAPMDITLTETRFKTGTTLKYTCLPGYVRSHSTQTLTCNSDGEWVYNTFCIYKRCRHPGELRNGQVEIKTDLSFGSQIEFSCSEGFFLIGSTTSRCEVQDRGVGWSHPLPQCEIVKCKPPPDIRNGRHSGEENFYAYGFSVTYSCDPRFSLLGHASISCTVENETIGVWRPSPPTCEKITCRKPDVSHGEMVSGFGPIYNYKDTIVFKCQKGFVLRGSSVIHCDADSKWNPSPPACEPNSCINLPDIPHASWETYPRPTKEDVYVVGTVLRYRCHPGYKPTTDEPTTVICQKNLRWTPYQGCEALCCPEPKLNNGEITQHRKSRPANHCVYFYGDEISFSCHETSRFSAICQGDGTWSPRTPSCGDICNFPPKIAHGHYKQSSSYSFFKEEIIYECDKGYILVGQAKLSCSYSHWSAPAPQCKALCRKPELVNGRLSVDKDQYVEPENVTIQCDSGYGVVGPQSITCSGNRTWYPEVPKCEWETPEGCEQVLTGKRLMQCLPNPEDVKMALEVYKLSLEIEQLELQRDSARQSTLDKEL
Method: The complex formation between the recombinant PS variant proteins and C4BP was measured with a sensitive ELISA using C4BP and a peroxidase conjugated anti-PS antibody as described by Chang et al., Thromb. Haemost., 67:526-532 (1992). Briefly, IgG at a concentration of 10 ug/ml from monoclonal antibody 8C11, which is directed against the alpha chain of C4BP (Hessing et al., J. Immunol., 144:204-208 (1990)), was coated in 50 mM NaHCO3 at pH 9.6 overnight at 4C. onto polyvinyl microtiter plates (Costar, Cambridge, Mass.). After washing to remove the unbound IgGs, the wells were blocked with 1% (w/v) BSA in 50 mM Tris-HCl at pH 7.5 containing 150 mM NaCl and 5 mM CaCl2 for 1 hour at room temperature. C4BP, prepared as described by Hessing et al., supra, was allowed to bind for 2 hours with a final concentration of 1 ug/ml. Increasing amounts of recombinant PS proteins (E424K, Q427E, K429E, […] and K432E) and wild-type recombinant PS prepared in Example 1 were then added in concentrations ranging from 0-150 ng/ml and maintained for 18 hours at room temperature. Bound proteins were allowed to bind to rabbit anti-human PS IgG conjugated to peroxidase (Dakopatts, Glostrup, Denmark) at a concentration of 0.3 ug/ml for 2 hours at room temperature. After washing the wells to remove the unbound proteins, 100 ul of 0.1M sodium phosphate/0.2M sodium citrate at pH 5.0 containing 0.04% 1,2-phenylenediamine dihydrochloride and 0.015% hydrogen peroxide was added. The hydrolysis of phenylenediamine was stopped by adding 50 ul 2N sulfuric acid. The absorbance was measured at 490 nm using a Vmax plate reader (Molecular Devices Corp., Menlo Park, Calif.). The data represented the mean of duplicate determinations.
The binding of the of the thrombin domain recombinant PS variants to C4BP was determined. The complex formation between the recombinant proteins and C4BP was measured with a sensitive ELISA using anti-C4BP monoclonal antibody 8C11 lgG, purified C4BP and peroxidase conjugated anti-PS antibody as described in Example 2A.
Anti-C4BP monoclonal antibody 8C11 IgG was coated onto microtiter wells to catch C4BP (1 ug/ml). Increasing amounts (0-100 ng/ml) of recombinant PS or variants (R49L, R60L, R70I, R49L/R60L, R60L/R70I, R49L/R70I and R49L/R60L/R70I) were added. Binding to C4BP was for 18 hours at room temperature. Bound PS variants were detected with anti-PS IgG conjugated to peroxidase (0.3 ug/ml). The results are the mean of duplicate values in two different experiments.

[2] = target: activated protein C (APC) (Homo sapiens, UniProt P04070); test: Activated partial thromboplastin time clotting assay, APC cofactor activity in PS- and C4BP-depleted plasma; type: biochemical; conditions: final conc. 0.6 ug/ml; basal clotting 80
Method: An activated partial thromboplastin time clotting assay, using PS- and C4BP-depleted plasma, cephalin-kaolin reagent (Boehringer Mannhein, Indianapolis, Ind.), activated protein C (APC) and increasing amounts of recombinant PS variants was performed as described by Chang et al., Thromb. Haemost., 67:526-532 (1992). Briefly, to 50 ul PS and C4BP-depleted plasma (prepared as described by Koedam et al., J. Clin. Invest., 82:1236-1243 (1988)) was added 50 ul cephalin-kaolin reagent, 25 ul APC (Koedam et al., ibid) at 5 ug/ml and 15 to 45 ul recombinant PS variants (0-4 ug/ml) diluted in Michaelis buffer (28.5 mM sodium acetate, 28.5 mM sodium barbital and 116 mM NaCl, pH 7.35) and maintained for 3 minutes at 37C. Clotting was initiated by addition of 50 ul of 25 mM CaCl2 and the clotting time was measured in an Amelung-Coagulometer KC10.
The ability of the variants to serve as a cofactor for APC was tested in a clotting assay. The clotting assay was performed as described in Example 2D. To examine the effects of thrombin on recombinant PS variants APC cofactor activity, one ml of purified recombinant PS variants listed above and prepared in Example 1D (4-40 ug/ml) was maintained with 1/20 vol (50 ul) of thrombin-Sepharose for 1 hour at 37C. in 50 mM Tris-HCl pH 7.5 containing […]. Thrombin-Sepharose was removed by centrifugation. Supernatants containing the thrombin-treated PS were stored at -20C. until used.
The PS-dependent prolongation of the clotting time was measured in an activated partial thromboplastin time system using PS and C4BP depleted plasma, APC and cephalin-kaolin reagent as described in Example 2D. Increasing amounts of recombinant PS or the triple variant treated without or with thrombin were added. Clotting was initiated by the addition of CaCl2 and the clotting time was measured. The results are presented as the means of duplicate values.

activated protein C (APC), sequence (P04070 212-461 limits assumed): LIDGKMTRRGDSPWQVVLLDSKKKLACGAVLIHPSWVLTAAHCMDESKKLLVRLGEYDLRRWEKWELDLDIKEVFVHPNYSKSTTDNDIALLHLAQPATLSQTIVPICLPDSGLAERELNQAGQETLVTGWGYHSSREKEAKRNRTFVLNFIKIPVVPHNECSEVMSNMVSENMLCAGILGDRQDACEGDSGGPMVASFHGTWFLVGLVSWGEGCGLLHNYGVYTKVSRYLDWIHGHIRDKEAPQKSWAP
activated protein C (APC), sequence (P04070 43-197 limits assumed): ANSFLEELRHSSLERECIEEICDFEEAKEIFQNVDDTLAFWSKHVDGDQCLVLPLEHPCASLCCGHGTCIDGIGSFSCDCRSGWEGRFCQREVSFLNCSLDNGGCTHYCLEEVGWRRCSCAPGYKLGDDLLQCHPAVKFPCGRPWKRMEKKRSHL

B1: E424K variant: recombinant human protein S with Glu-424 replaced by Lys (protein)
chain: ANSLLEETKQGNLERECIEELCNKEEAREVFENDPETDYFYPKYLVCLRSFQTGLFTAARQSTNAYPDLRSCVNAIPDQCSPLPCNEDGYMSCKDGKASFTCTCKPGWQGEKCEFDINECKDPSNINGGCSQICDNTPGSYHCSCKNGFVMLSNKKDCKDVDECSLKPSICGTAVCKNIPGDFECECPEGYRYNLKSKSCEDIDECSENMCAQLCVNYPGGYTCYCDGKKGFKLAQDQKSCEVVSVCLPLNLDTKYELLYLAEQFAGVVLYLKFRLPEISRFSAEFDFRTYDSEGVILYAESIDHSAWLLIALRGGKIEVQLKNEHTSKITTGGDVINNGLWNMVSVEELEHSISIKIAKEAVMDINKPGPLFKPENGLLETKVYFAGFPRKVESELIKPINPRLDGCIRSWNLMKQGASGIKKIIQEKQNKHCLVTVEKGSYYPGSGIAQFHIDYNNVSSAEGWHVNVTLNIRPSTGTGVMLALVSGNNTVPFAVSLVDSTSEKSQDILLSVENTVIYRIQALSLCSDQQSHLEFRVNRNNLELSTPLKIETISHEDLQRQLAVLDKAMKAKVATYLGGLPDVPFSATPVNAFYNGCMEVNINGVQLDLDEAISKHNDIRAHSCPSVWKKTKNS
**Q.** What does the source list for B1?
**A.** binding to C4BP [1]: bound to C4BP with the same apparent affinity as the wild type recombinant molecule; Clotting Time [2]: 97 s

B2: K432E variant: recombinant human protein S with Lys-432 replaced by Glu (protein)
chain: ANSLLEETKQGNLERECIEELCNKEEAREVFENDPETDYFYPKYLVCLRSFQTGLFTAARQSTNAYPDLRSCVNAIPDQCSPLPCNEDGYMSCKDGKASFTCTCKPGWQGEKCEFDINECKDPSNINGGCSQICDNTPGSYHCSCKNGFVMLSNKKDCKDVDECSLKPSICGTAVCKNIPGDFECECPEGYRYNLKSKSCEDIDECSENMCAQLCVNYPGGYTCYCDGKKGFKLAQDQKSCEVVSVCLPLNLDTKYELLYLAEQFAGVVLYLKFRLPEISRFSAEFDFRTYDSEGVILYAESIDHSAWLLIALRGGKIEVQLKNEHTSKITTGGDVINNGLWNMVSVEELEHSISIKIAKEAVMDINKPGPLFKPENGLLETKVYFAGFPRKVESELIKPINPRLDGCIRSWNLMKQGASGIKEIIQEKQNEHCLVTVEKGSYYPGSGIAQFHIDYNNVSSAEGWHVNVTLNIRPSTGTGVMLALVSGNNTVPFAVSLVDSTSEKSQDILLSVENTVIYRIQALSLCSDQQSHLEFRVNRNNLELSTPLKIETISHEDLQRQLAVLDKAMKAKVATYLGGLPDVPFSATPVNAFYNGCMEVNINGVQLDLDEAISKHNDIRAHSCPSVWKKTKNS
**Q.** How did the “binding to C4BP” value [1] turn out when B2 was run?
**A.** failed to bind to C4BP at concentrations up to 50 ng/ml

B3: I425A/I426A variant: recombinant human protein S with alanine in place of isoleucine at positions 425 and 426 (protein)
chain: ANSLLEETKQGNLERECIEELCNKEEAREVFENDPETDYFYPKYLVCLRSFQTGLFTAARQSTNAYPDLRSCVNAIPDQCSPLPCNEDGYMSCKDGKASFTCTCKPGWQGEKCEFDINECKDPSNINGGCSQICDNTPGSYHCSCKNGFVMLSNKKDCKDVDECSLKPSICGTAVCKNIPGDFECECPEGYRYNLKSKSCEDIDECSENMCAQLCVNYPGGYTCYCDGKKGFKLAQDQKSCEVVSVCLPLNLDTKYELLYLAEQFAGVVLYLKFRLPEISRFSAEFDFRTYDSEGVILYAESIDHSAWLLIALRGGKIEVQLKNEHTSKITTGGDVINNGLWNMVSVEELEHSISIKIAKEAVMDINKPGPLFKPENGLLETKVYFAGFPRKVESELIKPINPRLDGCIRSWNLMKQGASGIKEAAQEKQNKHCLVTVEKGSYYPGSGIAQFHIDYNNVSSAEGWHVNVTLNIRPSTGTGVMLALVSGNNTVPFAVSLVDSTSEKSQDILLSVENTVIYRIQALSLCSDQQSHLEFRVNRNNLELSTPLKIETISHEDLQRQLAVLDKAMKAKVATYLGGLPDVPFSATPVNAFYNGCMEVNINGVQLDLDEAISKHNDIRAHSCPSVWKKTKNS
**Q.** For B3, which “binding to C4BP” value [1] is on record?
**A.** failed to bind to C4BP at concentrations up to 50 ng/ml

B4: Q427E variant: recombinant human protein S with Gln-427 replaced by Glu (protein)
chain: ANSLLEETKQGNLERECIEELCNKEEAREVFENDPETDYFYPKYLVCLRSFQTGLFTAARQSTNAYPDLRSCVNAIPDQCSPLPCNEDGYMSCKDGKASFTCTCKPGWQGEKCEFDINECKDPSNINGGCSQICDNTPGSYHCSCKNGFVMLSNKKDCKDVDECSLKPSICGTAVCKNIPGDFECECPEGYRYNLKSKSCEDIDECSENMCAQLCVNYPGGYTCYCDGKKGFKLAQDQKSCEVVSVCLPLNLDTKYELLYLAEQFAGVVLYLKFRLPEISRFSAEFDFRTYDSEGVILYAESIDHSAWLLIALRGGKIEVQLKNEHTSKITTGGDVINNGLWNMVSVEELEHSISIKIAKEAVMDINKPGPLFKPENGLLETKVYFAGFPRKVESELIKPINPRLDGCIRSWNLMKQGASGIKEIIEEKQNKHCLVTVEKGSYYPGSGIAQFHIDYNNVSSAEGWHVNVTLNIRPSTGTGVMLALVSGNNTVPFAVSLVDSTSEKSQDILLSVENTVIYRIQALSLCSDQQSHLEFRVNRNNLELSTPLKIETISHEDLQRQLAVLDKAMKAKVATYLGGLPDVPFSATPVNAFYNGCMEVNINGVQLDLDEAISKHNDIRAHSCPSVWKKTKNS
**Q.** B4 was tested. Which “binding to C4BP” value [1] did it give?
**A.** bound to C4BP with the same apparent affinity as the wild type recombinant molecule

**Q.** And the “Clotting Time” value [2]?
**A.** 94 s
